Test [1] addresses F protein of RSV B-type clinical isolates (on virus) (respiratory syncytial virus B-type clinical isolates). Description: cell-based or functional assay.
Test [2] concerns the target post-fusion F protein (FΔFP) of RSV A2 strain (respiratory syncytial virus A2 strain) (UniProt P03420). Description: SPR (Biacore), F protein immobilised on CM5 chip, Fab as analyte. In general terms: In SPR one partner is held on a chip, and binding of the other changes the refractive index at the surface.
The target in test [3] is pre-fusion F protein DS-Cav1 of RSV A2 strain (respiratory syncytial virus A2 strain). The test is described as above.

Substance Palivizumab (antibody) showed an IC50 (ng/mL), neutralization of RSV B-type clinical isolates on Hep2 cells, flow cytometry in test [1] of 1410 ng/mL. Consider Palivizumab Fab, for which the Kd (usually a measure of binding affinity in units of concentration) in test [2] is 4.4 nM; in test [3], 11.4 nM.

The values above are taken from patent US20240262894A1.
